The source of these data is patent publication US20100196267A1.

Test [1] has as its target HLA-DR (human). Description: indirect flow cytometry on Namalwa cells, FITC-GAM 2nd Ab (none 2.91); control antibody.
Test [2] deals with antigen on dog lymphoma cells recognised by L243 and hL243 (dog). The experiment in a line: flow cytometry on dog lymphoma aspirate, murine MAbs (none 3.37); control antibody.
The target is the same in test [3]. The experiment in a line: flow cytometry on dog lymphoma aspirate, murine MAbs (none 3.85); control antibody.
The target of test [4] is CD74 on dog lymphoma cells (dog). The experiment in a line: flow cytometry on dog lymphoma aspirate, murine MAbs (none 3.37).
The target in test [5] is CD74 (human) (UniProt P04233). Description: indirect flow cytometry on Namalwa cells, FITC-GAM 2nd Ab (none 2.91).
The target in test [6] is CD74 on dog lymphoma cells (dog). The experiment in a line: flow cytometry on dog lymphoma aspirate, murine MAbs (none 3.85).
Test [7] has as its target CD22 on dog lymphoma cells (dog). The experiment in a line: flow cytometry on dog lymphoma aspirate, murine MAbs (none 3.37).
Test [8] addresses CD22 (human) (UniProt P20273). Description: indirect flow cytometry on Namalwa cells, FITC-GAM 2nd Ab (none 2.91).
Test [9] has as its target CD22 on dog lymphoma cells (dog). The experiment in a line: flow cytometry on dog lymphoma aspirate, murine MAbs (none 3.85).
The target in test [10] is HLA-DR (human). Description: indirect flow cytometry on Namalwa cells, FITC-GAM 2nd Ab (none 2.91); irrelevant antibody.
Test [11] addresses Fcγ receptors on effector cells. The experiment in a line: cell-based or functional assay.
Test [12] concerns the target CD74 (human) (UniProt P04233). The experiment in a line: indirect FACS, FITC-GAH Fc 2nd Ab, Raji cells (none 6.8); number split over two cells.
In test [13] the target is CD74 (human) (UniProt P04233). Description: indirect flow cytometry on Namalwa cells, FITC-GAH 2nd Ab (none 2.52).
Test [14] deals with CD74 (human) (UniProt P04233). Description: indirect flow cytometry, FITC-GAH Fc 2nd Ab, SU-DHL-6 cells (none 4.6).
Test [15] concerns the target CD74 on dog lymphoma cells (dog). The experiment in a line: flow cytometry on dog lymphoma aspirate, humanized MAbs (none 4.48).
The target is the same in test [16]. Description: flow cytometry on dog lymphoma aspirate, humanized MAbs (none 3.24).
Test [17] addresses CD74 (human) (UniProt P04233). Description: indirect flow cytometry, FITC-GAH Fc 2nd Ab, WSU-FSCCL cells (none 2.7).
Test [18] deals with CD74 (human) (UniProt P04233). Description: indirect FACS, FITC-GAH Fc 2nd Ab, Ramos cells (none 3.1); number split over two cells.
For test [19], the target named is CD74 (human) (UniProt P04233). The experiment in a line: indirect FACS, FITC-GAH Fc 2nd Ab, Daudi cells (none 3.1); number split over two cells.
For test [20], the target named is CD74 (human) (UniProt P04233). The experiment in a line: indirect flow cytometry, FITC-GAH Fc 2nd Ab, Daudi cells (none 3.2).
The target of test [21] is CD74 (human) (UniProt P04233). Description: indirect FACS, FITC-GAH Fc 2nd Ab, WSU-FSCCL cells (none 2.6); number split over two cells.
The target in test [22] is CD74 (human) (UniProt P04233). Description: indirect FACS, FITC-GAH Fc 2nd Ab, Namalwa cells (none 2.5); number split over two cells.
The target in test [23] is CD74 (human) (UniProt P04233). Description: indirect flow cytometry, FITC-GAH Fc 2nd Ab, Raji cells (none 6.9).
In test [24] the target is CD74 (human) (UniProt P04233). The experiment in a line: indirect flow cytometry, FITC-GAH Fc 2nd Ab, Ramos cells (none 3.1).
Test [25] has as its target CD74 (human) (UniProt P04233). Description: indirect flow cytometry, FITC-GAH Fc 2nd Ab, RL cells (none 2.4).
The target in test [26] is CD74 (human) (UniProt P04233). The experiment in a line: indirect FACS, FITC-GAH Fc 2nd Ab, SU-DHL-6 cells (none 4.6); number split over two cells.
The target in test [27] is CD74 (human) (UniProt P04233). The experiment in a line: indirect flow cytometry, FITC-GAH Fc 2nd Ab, Namalwa cells (none 2.6).
Test [28] addresses CD22 on dog lymphoma cells (dog). The experiment in a line: flow cytometry on dog lymphoma aspirate, humanized MAbs (none 4.48).
Test [29] has the same target. The experiment in a line: flow cytometry on dog lymphoma aspirate, humanized MAbs (none 3.24).
Test [30] has as its target HLA-DR (human). Description: indirect flow cytometry on Namalwa cells, FITC-GAH 2nd Ab (none 2.52); irrelevant antibody.
Test [31] deals with T1, CD20 on dog lymphoma cells (dog) (UniProt Q3C2E2).
T1 sequence (looked up): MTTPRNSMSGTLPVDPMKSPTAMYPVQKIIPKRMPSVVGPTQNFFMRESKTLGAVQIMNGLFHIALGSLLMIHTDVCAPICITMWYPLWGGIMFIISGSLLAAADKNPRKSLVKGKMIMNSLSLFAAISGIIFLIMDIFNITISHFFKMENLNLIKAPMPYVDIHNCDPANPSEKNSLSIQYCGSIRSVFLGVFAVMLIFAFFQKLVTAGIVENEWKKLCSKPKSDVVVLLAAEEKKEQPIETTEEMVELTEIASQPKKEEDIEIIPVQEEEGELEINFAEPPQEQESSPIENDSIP
Description: flow cytometry on dog lymphoma aspirate, murine MAbs (none 3.37).

In test [32] the target is T2, CD20 (human) (UniProt P11836).
T2 sequence (looked up): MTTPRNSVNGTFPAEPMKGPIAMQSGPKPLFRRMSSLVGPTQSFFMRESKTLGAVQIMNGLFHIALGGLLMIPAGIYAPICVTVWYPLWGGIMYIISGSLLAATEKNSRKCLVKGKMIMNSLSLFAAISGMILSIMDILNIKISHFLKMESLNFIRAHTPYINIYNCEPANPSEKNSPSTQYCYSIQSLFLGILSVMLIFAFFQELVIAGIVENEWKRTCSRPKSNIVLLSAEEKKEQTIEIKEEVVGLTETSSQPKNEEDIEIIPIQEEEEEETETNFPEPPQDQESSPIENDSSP
Description: indirect flow cytometry on Namalwa cells, FITC-GAM 2nd Ab (none 2.91).

Test [33] addresses T1, CD20 on dog lymphoma cells (dog). The experiment in a line: flow cytometry on dog lymphoma aspirate, murine MAbs (none 3.85).

Chain of CD74 (human) (P04233 whole entry): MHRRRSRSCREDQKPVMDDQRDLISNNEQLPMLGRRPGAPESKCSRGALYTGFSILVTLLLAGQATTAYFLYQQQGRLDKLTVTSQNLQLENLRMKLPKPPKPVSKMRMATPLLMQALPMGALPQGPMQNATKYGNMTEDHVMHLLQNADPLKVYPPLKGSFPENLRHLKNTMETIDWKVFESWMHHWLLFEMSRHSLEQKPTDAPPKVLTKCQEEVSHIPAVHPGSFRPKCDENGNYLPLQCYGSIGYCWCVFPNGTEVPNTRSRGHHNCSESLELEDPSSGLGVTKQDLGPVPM

Consider Ag8 (antibody), for which the GEO MEAN Fluorescence in test [1] was 3.64. This substance registered a Mean FL in test [2] of 3.04. In test [3], this substance displayed a % of 2.81%.
With LL1 (murine) (antibody), the Mean FL in [4] was 4.01. This substance also registered a GEO MEAN Fluorescence in test [5] of 17.3. In addition, in test [6], the % was determined as 6.69%.
On to LL2 (murine) (antibody), for which the Mean FL in test [7] amounted to 3.73. The substance also showed a GEO MEAN Fluorescence in test [8] of 10.5. Further, the % in test [9] was found to be 5.05%.
In [10], RS7 (murine) (antibody) showed a GEO MEAN Fluorescence of 3.39.
For the substance hL243γ1 (antibody), the ADCC on Daudi cells, specific lysis corrected for the effect on effector cells (5 µg/ml, effector:target 50:1, 4 h) in [11] turned out to be 48%.
Still for that read-out and setting: for hL243γ4P (antibody) the value was 12%.
hLL1 (antibody): the Geometric Mean Fluorescence is 95.1 in test [12]; 17.3 in test [14]; 8.7 in test [17]; 23.2 in [18]; 48.8 in test [19]; 48.8 in test [20]. Further, the Geometric Mean Fluorescence in [21] is 8.66; in test [22] it was 7.81; in test [23], 95.1; in [24] it was 23.3; in test [25], 7.9; in test [26] it was 17.3. The substance further came in with a Geometric Mean Fluorescence in test [27] of 7.8. Besides, the GEO MEAN Fluorescence in test [13] turned out to be 10.1. In addition, the % in [15] is 4.71%. This substance also registered a Mean FL in test [16] of 3.33.
hLL2 (antibody) gave a % in test [28] of 4.85%. The substance also gave a Mean FL in [29] of 3.37.
Turning to hRS7 (antibody), the GEO MEAN Fluorescence in test [30] turned out to be 2.47.
For m2B8 (antibody), the Mean FL in test [31] stood at 3.11. In [32], this substance came in with a GEO MEAN Fluorescence of 6.16. For the same substance, the % in [33] turned out to be 2.61%.
